Test results taken from patent US20060183161A1.

Biological target: IL-1 receptors on fibroblasts (human) (UniProt P14778)
Assay: cell-based or functional assay

UniProt P14778, sequence (P14778 18-569): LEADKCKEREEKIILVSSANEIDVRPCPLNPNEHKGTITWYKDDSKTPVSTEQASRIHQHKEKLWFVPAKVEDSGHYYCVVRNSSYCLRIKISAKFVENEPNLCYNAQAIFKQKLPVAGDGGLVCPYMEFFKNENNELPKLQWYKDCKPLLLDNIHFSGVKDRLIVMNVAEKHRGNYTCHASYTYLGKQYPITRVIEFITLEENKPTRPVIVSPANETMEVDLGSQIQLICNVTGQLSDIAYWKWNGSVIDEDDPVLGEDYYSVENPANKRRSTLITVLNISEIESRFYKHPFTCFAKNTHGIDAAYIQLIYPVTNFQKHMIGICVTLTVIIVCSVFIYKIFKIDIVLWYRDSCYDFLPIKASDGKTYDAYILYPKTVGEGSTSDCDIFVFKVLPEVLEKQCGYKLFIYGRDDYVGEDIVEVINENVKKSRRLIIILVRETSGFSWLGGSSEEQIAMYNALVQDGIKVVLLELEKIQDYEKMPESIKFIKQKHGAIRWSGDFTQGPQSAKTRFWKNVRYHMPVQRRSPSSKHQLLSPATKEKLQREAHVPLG

IL-1-like activity: IL-6 secretion by fibroblasts and endothelial cells (ELISA) (% of the activity of 0.1 nM IL-1b) | IL-6 production from fibroblasts in response to 0.1 nM IL-1b (ELISA) | Substance
< 1 |  | rhIL-1L1 Form B (from UniProt Q9UBH0 1-155) (ligand)
 | 95 % reduction | recombinant human IL-1 receptor antagonist (rhIL-1ra) (from UniProt P18510 28-177) (ligand)
